Holding throughout (conditions): both partners purified
The target of test [1] is T1, HAstV8 capsid spike (Spike 8) fused to a 10x histidine tag (Human astrovirus 8 (HAstV-8), Q9IFX1, UniProt Q9IFX1).
T1 construct: HAstV serotype 8 capsid spike protein, amino acids 429 to 647 of the capsid protein (UniProtKB entry Q9IFX1); A thrombin cleavage site stands between the spike and the C-terminal 10-histidine tag (pET52b); Captured on Anti-Penta-His sensors by the tag; also called His-tagged Spike 8; HAstV serotype 8 capsid spike protein; not shown: His10, C-terminal, kept
T1 sequence (Q9IFX1 429-647, one chain of several): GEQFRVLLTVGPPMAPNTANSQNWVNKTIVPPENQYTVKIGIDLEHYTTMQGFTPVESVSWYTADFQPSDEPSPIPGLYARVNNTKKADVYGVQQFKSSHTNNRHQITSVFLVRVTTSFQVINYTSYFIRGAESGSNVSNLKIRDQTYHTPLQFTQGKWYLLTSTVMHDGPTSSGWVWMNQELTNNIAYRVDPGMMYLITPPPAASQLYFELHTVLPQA
Briefly: BLI; His-tagged Spike 8 (0.5 ug/ml) loaded on Anti-Penta-His (HIS1K) biosensors; scFv as analyte in six 1:2 serial dilutions (from 80 nM scFv 3E8 or 20 nM scFv 2D9); PBS pH 7.4, 2% BSA, 0.09% Tween 20; 22 C; global 1:1 fit; mean of triplicate assays.

In test [2] the target is T2, HAstV8 capsid spike (Spike 8), purification tag removed by thrombin (human astrovirus serotype 8 (HAstV8), UniProt Q9IFX1).
T2 construct: HAstV serotype 8 capsid spike protein, amino acids 429 to 647 of the capsid protein (UniProtKB entry Q9IFX1); Same construct as m1 after thrombin digestion; residues of the thrombin site may remain at the C-terminus; source: tag removed with thrombin during complex formation; not shown: His10, C-terminal, cleaved
T2 sequence (Q9IFX1 429-647): as the sequence (Q9IFX1 429-647, one chain of several) above
Nature of the test: SEC; 3 molar excess scFv 3E8 with Spike 8 overnight at 4 C, tags removed with thrombin; Superdex 200 in TBS pH 7.2; coeluted at apparent ~105 kDa against gel filtration standards; data not shown. Background: Size exclusion chromatography separates by hydrodynamic size, large species first.

Test [3] addresses T2, HAstV8 capsid spike (Spike 8), …. Nature of the test: SEC; 3.5 molar excess scFv 2D9 with Spike 8 overnight at 4 C, tags removed with thrombin; Superdex 200 in TBS pH 8.0; coeluted at apparent ~105 kDa against gel filtration standards; data not shown.

B1: scFv 3E8 (single-chain variable fragment of mouse monoclonal antibody 3E8) (scFv, V domains shown)
VH: DVQLQESGPGLVKPSQSLSLTCSVTGYSITSGYYWNWIRQFPGNKLEWMGYISYDGSNNYNPSLKNRISITRDTSKNQFFLKLNSVTTEDTATYYCATFYDGYDYWGQGTTLTVSS
VL: DIVMTQSHKFMSTSVGDRVSITCKASQDVSTAVAWYQQKPGQSPKLLIYWASTRHTGVPDRFTGSGSGTDYTLTISSVQAEDLALYYCQQHYSTPFTFGSGTKLEIK
notes: 3E8 kappa chain variable region; GGS(GGGGS)3 linker; 3E8 heavy chain variable region; A thrombin cleavage site stands between the scFv and the C-terminal Twin Strep-tag; source: CHO-S cells (electroporated), secreted, purified (StrepTrap HP)
On to B1, for which, in test [1], the Kd (commonly the concentration at which binding is half-saturated) was 40 nM.

B2: scFv 3E8, purification tag removed by thrombin (scFv, V domains shown)
VH: B1 VH
VL: B1 VL
notes: 3E8 kappa chain variable region, as in m3; GGS(GGGGS)3 linker; 3E8 heavy chain variable region, as in m3; Same construct as m3 after thrombin digestion; source: CHO-S cells (electroporated), secreted, purified (StrepTrap HP); tag removed with thrombin during complex formation; not shown: Twin Strep-tag, C-terminal, cleaved
For the molecule B2, in test [2], the stoichiometry N (as a rule, a count of units in the complex or per binding partner) was 1 scFv per Spike 8 protomer (2:2 complex).

B3: scFv 2D9 (single-chain variable fragment of mouse monoclonal antibody 2D9) (scFv, V domains shown)
VH: QVQLKQSGPGLVQPSQSLSITCTVSGFSLTSYGVHWVRQSPGKGLEWLGVIWSGGSTDYNAAFISRLSISKDNSKSQVFFKMNSLQANDTAIYYCARNSLLDAMDYWGQGTSVTVSS
VL: SIVMTQTPKFLLVSAGDRVTITCKASQSVSNAVAWYQQKPGQSPKLLIYYASNRYTGVPDRFTGSGYGTDFTFTISTVQAEDLAVYFCQQDYSSPLTFGAGTKLELK
notes: 2D9 kappa chain variable region; GGS(GGGGS)3 linker; 2D9 heavy chain variable region; A thrombin cleavage site stands between the scFv and the C-terminal Twin Strep-tag; source: D. melanogaster Schneider 2 (S2) cells, stably transfected, secreted, purified (StrepTrap HP)
B3: the Kd in test [1] is 0.00245 nM.

B4: scFv 2D9, purification tag removed by thrombin (scFv, V domains shown)
VH: B3 VH
VL: B3 VL
notes: 2D9 kappa chain variable region, as in m5; GGS(GGGGS)3 linker; 2D9 heavy chain variable region, as in m5; Same construct as m5 after thrombin digestion; source: D. melanogaster Schneider 2 (S2) cells, stably transfected, secreted, purified (StrepTrap HP); tag removed with thrombin during complex formation; not shown: Twin Strep-tag, C-terminal, cleaved
For B4, in test [3], the “stoichiometry N” value was 1 scFv per Spike 8 protomer (2:2 complex).

For the origin of these results see PMC8754201, “Structures of Two Human Astrovirus Capsid/Neutralizing Antibody Complexes Reveal Distinct Epitopes and Inhibition of Virus Attachment to Cells” (Journal of Virology, 2021).
